Test results reported in patent US20260062466A1.

Key:
Assay in all cases: cell-based or functional assay
[1] = biological target: CHIKV-37997 (virus) (Chikungunya virus strain 37997) (UniProt Q5XXP3)
[2] = biological target: CHIKV-LR 2006 (virus) (Chikungunya virus strain LR 2006)
[3] = biological target: ONNV (O'nyong'nyong virus, MP30) envelope glycoproteins (O'nyong'nyong virus strain MP30)

CHIKV-37997 (virus) (Chikungunya virus strain 37997), sequence (Q5XXP3 326-748 limits assumed, chain 1 of 2): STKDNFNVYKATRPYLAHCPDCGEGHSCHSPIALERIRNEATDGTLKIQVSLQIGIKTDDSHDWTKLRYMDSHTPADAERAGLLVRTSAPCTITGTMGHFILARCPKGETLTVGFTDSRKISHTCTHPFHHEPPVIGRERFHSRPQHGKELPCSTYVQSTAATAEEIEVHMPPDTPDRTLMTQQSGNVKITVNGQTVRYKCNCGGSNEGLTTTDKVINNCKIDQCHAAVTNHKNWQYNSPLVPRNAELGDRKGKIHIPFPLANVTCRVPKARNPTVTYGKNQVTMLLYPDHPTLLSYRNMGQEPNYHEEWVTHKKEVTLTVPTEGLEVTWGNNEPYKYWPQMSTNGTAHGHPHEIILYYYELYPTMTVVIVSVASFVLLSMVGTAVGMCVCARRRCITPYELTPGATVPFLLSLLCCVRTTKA
CHIKV-37997 (virus) (Chikungunya virus strain 37997), sequence (Q5XXP3 810-1248 limits assumed, chain 2 of 2): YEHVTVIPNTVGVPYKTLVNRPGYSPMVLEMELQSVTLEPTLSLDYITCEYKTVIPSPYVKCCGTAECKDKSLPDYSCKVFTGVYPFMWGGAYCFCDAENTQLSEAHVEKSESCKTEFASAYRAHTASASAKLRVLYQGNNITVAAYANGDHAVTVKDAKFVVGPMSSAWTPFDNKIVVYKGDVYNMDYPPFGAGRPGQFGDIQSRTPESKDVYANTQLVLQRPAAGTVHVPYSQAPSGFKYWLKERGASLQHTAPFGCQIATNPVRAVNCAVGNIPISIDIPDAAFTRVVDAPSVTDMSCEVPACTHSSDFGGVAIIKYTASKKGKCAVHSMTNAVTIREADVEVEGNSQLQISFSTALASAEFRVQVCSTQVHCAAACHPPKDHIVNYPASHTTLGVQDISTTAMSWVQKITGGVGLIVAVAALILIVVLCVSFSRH

Row | Binder | FRNT neutralisation, 37997 EC50 [1] | FRNT neutralisation, LR 2006 EC50 [2] | FRNT neutralisation of ONNV, EC50 [3]
1 | 516.F07 (antibody, V domains shown) VH: EVQLVQSGAEVKKPGESLKISCKGSGYRFTSYWIAWVRQMPGKGLECMGIIYPGDSDTRYSPSFQGQVTISVDKSISTAYLQWSSLKASDTAMFYCARHNNNWSLQGYFDYWGQGTLVTVSS VL: PSALTQPASVSGSPGQSITISCTGTSSDVGGYNYVSWYQQHPGKAPKLMIYDVSNRSSGVSNRFSGSKSGNTASLTISGLQAEDEADYYCSSYTGSSTSNYVFGTGTKVTVL | 0.004 µg/mL | 0.031 µg/mL | –
2 | 516.H09 (antibody, V domains shown) VH: QLQLQESGPGLVKPSETLSLTCTVSGGSISSSSYYWGWIRQPPGKGLEWIGSIYYSGSTYYNPSLKSRVTISVDTSKNQFSLKLSSVTAADTAVYYCARHSYCSGGSCYLAPLGDWGQGTLVTVSS VL: SYVLTQPPSVSVAPGKTARITCGGNNIGSKSVHWYQQKPGQAPVLVIYYDSDRPSGIPERFSGSNSGNTATLTISRVEAGDEADYYCQVWDSSSDFYVFGTGTKVTVL | 0.526 µg/mL | 0.182 µg/mL | –
3 | 516.D09 (antibody, V domains shown) VH: QVQLVQSGAEVKKPGSSVKVSCKAFGGTFSSSAITWVRQAPGQGLEWMGRIIPIFGTANYAQKFQGRVTITADKSTTTAYMELSSLRSEDTAVYYCALKADSYCSGSSCYPSFDYWGQGTLVTVSS VL: SYVLTQPPSVSVAPGKTARITCGGNNIGSKSVHWYQQRPGQAPVLVVYDDSDRPSGIPERFSGSNSGNTATLTISRVEAGDEADYYCQVWDSSSDQEVFGGGTKLTVL | 0.35 µg/mL | 0.248 µg/mL | –
4 | 516.H07 (antibody, V domains shown) VH: EVQLVESGGGLVQPGGSLRLSCAASGFTFSSYEMNWVRQAPGKGLEWVSYMSYTGSTIYYADSVKGRFTISRDNGKNSLYLQMNSLRVEDTAVYYCARGGVVVAPTYFDYWGQGTLVTVSS VL: QSVLTQPPSVSGAPGQRVTISCTGSSSNIGAGYDVHWYQQLPGTAPKLLIYHNNNRPSGVPDRFSASKSGTSASLAITGLQAEDEADYYCQSYDSSLSGWVFGGGTKLTVL | 0.91 µg/mL | 0.061 µg/mL | < 0.05 µg/mL
5 | 520.D02 (antibody, V domains shown) VH: QVQLVQSGSELQKPGASVKVSCKASGYTFTENAIIWVRQAPGQGLEWMGRIIRYPGRPTIAQGFTGRFGFSLDTSINTAYLEISNLKAEDTAFFYCAREYCDSSSCSSFDYWGQGTLVTVSS VL: QSVLTQPPSASGSPGQSVTISCTGTNNDVGIYSYVSWYQQHPGKAPKLMIYEVSKRPSGVPDRFSGSKSGNTASLTVSGLQADDEADYYCSSYAGSNSYVFGSGTKVTVL | 0.002 µg/mL | 0.005 µg/mL | –
6 | 506.C01 (antibody, V domains shown) VH: QVQLQESGPGLVKPSQTLSLTCTVSGGSISSDDYYWTWIRLPPGKGLEWIGYIFYTGGTYYNPSLKSRVTISLDRSKNQFSLKLSSVTAADTAVYFCARAPETYCSTTNCYKGYFDSWGQGTLVTVSS VL: DIQMTQSPSSVSASVGDRVTITCRASQGISSWLGWYQQKPGKAPKLLIYAASSLQSGVPSRFSGSGSGTDFTLTISSLQPEDFATYYCQQANSFPRTFGQGTKVEIK | – | – | < 0.05 µg/mL
